Molecular target: Segmentally labelled CheA (P1 domain and P2-5 part labelled differently and joined) (Escherichia coli) (UniProt P07363)
Test: NMR titration

UniProt P07363, sequence (P07363 whole entry, the tested form may be a part): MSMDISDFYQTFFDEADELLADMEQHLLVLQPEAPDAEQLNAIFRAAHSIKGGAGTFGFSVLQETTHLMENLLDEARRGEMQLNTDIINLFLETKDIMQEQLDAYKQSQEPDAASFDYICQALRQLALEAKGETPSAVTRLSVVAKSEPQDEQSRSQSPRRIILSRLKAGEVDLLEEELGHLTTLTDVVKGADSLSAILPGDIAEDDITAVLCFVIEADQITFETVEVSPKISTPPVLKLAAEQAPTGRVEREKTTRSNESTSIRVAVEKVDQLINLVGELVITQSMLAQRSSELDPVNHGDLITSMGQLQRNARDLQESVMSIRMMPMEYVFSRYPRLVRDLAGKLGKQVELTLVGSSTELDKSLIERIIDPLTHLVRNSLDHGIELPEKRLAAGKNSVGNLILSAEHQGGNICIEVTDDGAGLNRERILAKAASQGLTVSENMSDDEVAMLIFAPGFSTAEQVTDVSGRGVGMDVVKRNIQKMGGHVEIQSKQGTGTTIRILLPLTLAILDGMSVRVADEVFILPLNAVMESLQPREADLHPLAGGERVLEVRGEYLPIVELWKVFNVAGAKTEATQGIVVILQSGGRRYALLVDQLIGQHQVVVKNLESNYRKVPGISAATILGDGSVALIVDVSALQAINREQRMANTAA

CheY from Escherichia coli, wild type (from UniProt P0AE67 1-129) (natural protein)
stoichiometry N (CheY per CheA): 2

Source: paper PMC5705603
